# Assay results taken from patent publication US20120178908A1 (Novo Nordisk, published 2012).
# Numbering of substitutions follows the chain as printed.
# T1: TLT-1 18-188 relipidated in 20:80 PS:PC vesicles (human, UniProt Q86YW5 18-188)
# T1 sequence: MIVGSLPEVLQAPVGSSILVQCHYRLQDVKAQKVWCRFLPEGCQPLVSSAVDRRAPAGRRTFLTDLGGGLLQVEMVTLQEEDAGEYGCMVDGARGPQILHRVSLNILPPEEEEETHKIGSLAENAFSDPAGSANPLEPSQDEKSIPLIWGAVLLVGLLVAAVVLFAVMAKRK
# T2: TLT-1 receptor on the surface of activated human platelets (human, UniProt Q86YW5 16-311)
# T2 sequence: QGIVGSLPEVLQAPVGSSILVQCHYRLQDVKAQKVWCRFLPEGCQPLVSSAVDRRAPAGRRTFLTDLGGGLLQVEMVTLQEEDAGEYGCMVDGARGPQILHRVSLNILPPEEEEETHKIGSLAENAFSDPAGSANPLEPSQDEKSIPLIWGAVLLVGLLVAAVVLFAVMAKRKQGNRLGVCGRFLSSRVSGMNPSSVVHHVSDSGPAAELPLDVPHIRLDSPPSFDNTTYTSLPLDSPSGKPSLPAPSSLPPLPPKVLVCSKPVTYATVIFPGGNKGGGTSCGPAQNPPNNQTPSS
# B1: Fab 0051-LC-L4a-TF;VH-CH1-HPC4 (other)
# light chain-linker-TF: SIVMTQTPKFLLVSAGDRVTITCKASQSVSNDVAWYQQKPGQSPKLLINYASSRYTGIPDRFTGSGYGTDFTFTISTVQAEDLAVYFCQQDYSSPYTFGGGTKLEIERTVAAPSVFIFPPSDEQLKSGTASVVCLLNNFYPREAKVQWKVDNALQSGNSQESVTEQDSKDSTYSLSSTLTLSKADYEKHKVYACEVTHQGLSSPVTKSFNRGECGSGGGGSGGGGSGGGGSSGTTNTVAAYNLTWKSTNFKTILEWEPKPVNQVYTVQISTKSGDWKSKCFYTTDTECDLTDEIVKDVKQTYLARVFSYPAGNVESTGSAGEPLYENSPEFTPYLETNLGQPTIQSFEQVGTKVNVTVEDERTLVRRNNTFLSLRDVFGKDLIYTLYYWKSSSSGKKTAKTNTNEFLIDVDKGENYCFSVQAVIPSRTVNRKSTDSPVECMGQEKGEFRE
# VH-CH1-HPC4: QVQLEQSGAELVRPGVSVKISCKGSGYTFTDYSMHWVKQSHAKSLEWIGVISTYYGDVRYNQKFKGKATMTVDKSSSTAYMALARLTSEDSAIYYCARAPMITTGAWFAYWGQGTLVTVSAASTKGPSVFPLAPCSRSTSESTAALGCLVKDYFPEPVTVSWNSGALTSGVHTFPAVLQSSGLYSLSSVVTVPSSSLGTKTYTCNVDHKPSNTKVDKRVESKEDQVDPRLIDGK
# B2: Fab 0012-LC-L0-hTF.1-219; VH-CH1-HPC4 (other)
# light: DVVMTQTPLSLPVSLGDQASISCRSSQSLVHRNGNTYFHWCLQKPGQSPKLLIYKVSNRFSGVPDRFSGSGSGTDFTLKISRVEAEDLGVYFCSQSTHVPYTFGGGTKLEIKRTVAAPSVFIFPPSDEQLKSGTASVVCLLNNFYPREAKVQWKVDNALQSGNSQESVTEQDSKDSTYSLSSTLTLSKADYEKHKVYACEVTHQGLSSPVTKSFNRGECSGTTNTVAAYNLTWKSTNFKTILEWEPKPVNQVYTVQISTKSGDWKSKCFYTTDTECDLTDEIVKDVKQTYLARVFSYPAGNVESTGSAGEPLYENSPEFTPYLETNLGQPTIQSFEQVGTKVNVTVEDERTLVRRNNTFLSLRDVFGKDLIYTLYYWKSSSSGKKTAKTNTNEFLIDVDKGENYCFSVQAVIPSRTVNRKSTDSPVECMGQEKGEFRE
# heavy: EVKLLESGGGLVQPGGSLKLSCAASGFDFSRYWMTWVRQAPGKGLEWIGEINPDSSTINYTPSLKDKFIISRDNAKNTLYLQMSEVRSEDTALYYCASGVFTSWGQGTLVTVSAASTKGPSVFPLAPCSRSTSESTAALGCLVKDYFPEPVTVSWNSGALTSGVHTFPAVLQSSGLYSLSSVVTVPSSSLGTKTYTCNVDHKPSNTKVDKRVESKEDQVDPRLIDGK
# B3: Fab 0012-VH-CH1-L4a-hTF.1-219; LC-HPC4 (other)
# heavy: EVKLLESGGGLVQPGGSLKLSCAASGFDFSRYWMTWVRQAPGKGLEWIGEINPDSSTINYTPSLKDKFIISRDNAKNTLYLQMSEVRSEDTALYYCASGVFTSWGQGTLVTVSAASTKGPSVFPLAPCSRSTSESTAALGCLVKDYFPEPVTVSWNSGALTSGVHTFPAVLQSSGLYSLSSVVTVPSSSLGTKTYTCNVDHKPSNTKVDKRVESKGSGGGGSGGGGSGGGGSSGTTNTVAAYNLTWKSTNFKTILEWEPKPVNQVYTVQISTKSGDWKSKCFYTTDTECDLTDEIVKDVKQTYLARVFSYPAGNVESTGSAGEPLYENSPEFTPYLETNLGQPTIQSFEQVGTKVNVTVEDERTLVRRNNTFLSLRDVFGKDLIYTLYYWKSSSSGKKTAKTNTNEFLIDVDKGENYCFSVQAVIPSRTVNRKSTDSPVECMGQEKGEFRE
# light: DVVMTQTPLSLPVSLGDQASISCRSSQSLVHRNGNTYFHWCLQKPGQSPKLLIYKVSNRFSGVPDRFSGSGSGTDFTLKISRVEAEDLGVYFCSQSTHVPYTFGGGTKLEIKRTVAAPSVFIFPPSDEQLKSGTASVVCLLNNFYPREAKVQWKVDNALQSGNSQESVTEQDSKDSTYSLSSTLTLSKADYEKHKVYACEVTHQGLSSPVTKSFNRGECEDQVDPRLIDGK
# B4: Fab 0082-VH-CH1-L10-TF;LC-HPC4 (other)
# VH-CH1-linker-TF: EVKLLESGGGLVQPGGSLKLSCAASGFDFSRYWMTWVRQAPGKGLEWIGEINPDSSTINYAPSLKDKFIISRDNAKNTLYLQMSEVRSEDTALYYCASGVFTSWGQGTLVTVSAASTKGPSVFPLAPCSRSTSESTAALGCLVKDYFPEPVTVSWNSGALTSGVHTFPAVLQSSGLYSLSSVVTVPSSSLGTKTYTCNVDHKPSNTKVDKRVESKYGPPSPSSPAPEFLGGSGTTNTVAAYNLTWKSTNFKTILEWEPKPVNQVYTVQISTKSGDWKSKCFYTTDTECDLTDEIVKDVKQTYLARVFSYPAGNVESTGSAGEPLYENSPEFTPYLETNLGQPTIQSFEQVGTKVNVTVEDERTLVRRNNTFLSLRDVFGKDLIYTLYYWKSSSSGKKTAKTNTNEFLIDVDKGENYCFSVQAVIPSRTVNRKSTDSPVECMGQEKGEFRE
# light chain-HPC4: B3 light with C41A
# B5: Fab 0061-VH-CH1-L10-TF;LC-HPC4 (other)
# VH-CH1-linker-TF: B4 VH-CH1-linker-TF with A61N
# light chain-HPC4: B3 light with C41A
# B6: Fab 0023-LC-L3-TF;VH-CH1-HPC4 (other)
# light chain-linker-TF: DIVVSQSPSSLAVSAGEKVTMSCKSSQSLLNSRTRKNYLAWYQQKPGQSPKLLIYWASTRESGVPDRFTGSGSGTDFTLTISSVQAEDLAVYYCKQSYNLLTFGAGTKLELKRTVAAPSVFIFPPSDEQLKSGTASVVCLLNNFYPREAKVQWKVDNALQSGNSQESVTEQDSKDSTYSLSSTLTLSKADYEKHKVYACEVTHQGLSSPVTKSFNRGECGSGGGGSGGGGSSGTTNTVAAYNLTWKSTNFKTILEWEPKPVNQVYTVQISTKSGDWKSKCFYTTDTECDLTDEIVKDVKQTYLARVFSYPAGNVESTGSAGEPLYENSPEFTPYLETNLGQPTIQSFEQVGTKVNVTVEDERTLVRRNNTFLSLRDVFGKDLIYTLYYWKSSSSGKKTAKTNTNEFLIDVDKGENYCFSVQAVIPSRTVNRKSTDSPVECMGQEKGEFRE
# VH-CH1-HPC4: EVRLVESGGGLVQPGGSLKLSCATSGFTFSDYFMYWIRQTPEKRLEWVAYISNGGDSSSYPDTVKGRFTISRDNAKNTLYLQMSRLKSEDTAMYYCATNKNWDDYYDMDYWGQGTSVTVSSASTKGPSVFPLAPCSRSTSESTAALGCLVKDYFPEPVTVSWNSGALTSGVHTFPAVLQSSGLYSLSSVVTVPSSSLGTKTYTCNVDHKPSNTKVDKRVESKEDQVDPRLIDGK
# B7: Fab 0023-LC-L6-TF;VH-CH1-HPC4 (other)
# light chain-linker-TF: DIVVSQSPSSLAVSAGEKVTMSCKSSQSLLNSRTRKNYLAWYQQKPGQSPKLLIYWASTRESGVPDRFTGSGSGTDFTLTISSVQAEDLAVYYCKQSYNLLTFGAGTKLELKRTVAAPSVFIFPPSDEQLKSGTASVVCLLNNFYPREAKVQWKVDNALQSGNSQESVTEQDSKDSTYSLSSTLTLSKADYEKHKVYACEVTHQGLSSPVTKSFNRGECGGGGSGGGGSGSGGGGSGGGGSGGGGSSGTTNTVAAYNLTWKSTNFKTILEWEPKPVNQVYTVQISTKSGDWKSKCFYTTDTECDLTDEIVKDVKQTYLARVFSYPAGNVESTGSAGEPLYENSPEFTPYLETNLGQPTIQSFEQVGTKVNVTVEDERTLVRRNNTFLSLRDVFGKDLIYTLYYWKSSSSGKKTAKTNTNEFLIDVDKGENYCFSVQAVIPSRTVNRKSTDSPVECMGQEKGEFRE
# VH-CH1-HPC4: B6 VH-CH1-HPC4
# B8: Fab 0023-LC-L4a-TF;VH-CH1-HPC4 (other)
# light chain-linker-TF: DIVVSQSPSSLAVSAGEKVTMSCKSSQSLLNSRTRKNYLAWYQQKPGQSPKLLIYWASTRESGVPDRFTGSGSGTDFTLTISSVQAEDLAVYYCKQSYNLLTFGAGTKLELKRTVAAPSVFIFPPSDEQLKSGTASVVCLLNNFYPREAKVQWKVDNALQSGNSQESVTEQDSKDSTYSLSSTLTLSKADYEKHKVYACEVTHQGLSSPVTKSFNRGECGSGGGGSGGGGSGGGGSSGTTNTVAAYNLTWKSTNFKTILEWEPKPVNQVYTVQISTKSGDWKSKCFYTTDTECDLTDEIVKDVKQTYLARVFSYPAGNVESTGSAGEPLYENSPEFTPYLETNLGQPTIQSFEQVGTKVNVTVEDERTLVRRNNTFLSLRDVFGKDLIYTLYYWKSSSSGKKTAKTNTNEFLIDVDKGENYCFSVQAVIPSRTVNRKSTDSPVECMGQEKGEFRE
# VH-CH1-HPC4: B6 VH-CH1-HPC4
# Molecular target: T1, TLT-1 18-188 relipidated in 20:80 PS:PC …
# Assay: cell-based or functional assay
FVII-mediated FXa generation % Activity lipidated TLT-1,FVIIa-mediated FXa generation % Activity lipidated TLT-1,Binder
22%,43%,B1
90%,98%,B2
60%,72%,B3
103%,103%,B4
101%,101%,B5
26%,42%,B6
27%,44%,B7
24%,40%,B8

# Molecular target: T2, TLT-1 receptor on the surface of …
# Assay: cell-based or functional assay
FVIIa-mediated FXa generation % Activity activated plts (n 1),FVII-mediated FXa generation % Activity activated plts (n 1),Binder
132%,,B2
57%,40%,B4
62%,39%,B5
43%,20%,B6
45%,20%,B7
21%,21%,B8
